From patent US7998940B2, “Aptamers to von Willebrand factor and their use as thrombotic disease therapeutics” (Archemix Corp., priority 2004, dated 2011)
Substitutions are numbered along the chain they refer to. Like-named read-outs stand apart in the source and are kept apart here. Oligonucleotides are written 5' to 3', each unit as a sugar letter and its base; * is a phosphorothioate linkage, no mark a phosphodiester; rarer units and linkages stand in square brackets, end groups in braces. Plain capitals give the bases only. [invdT] = inverted (3'-3') thymidine; d = 2'-deoxy (DNA); m = 2'-O-methyl; r = 2'-OH (RNA); f = 2'-fluoro

Tests used:
[1] = system: botrocetin induced platelet aggregation; assay: Inhibition of botrocetin induced platelet aggregation (BIPA) in human PRP; format: cell-based; details: for IC90: human platelet rich plasma; for ≦200 nM aptamer gives >90% blocking in BIPA at 6 minutes: botrocetin induced platelet aggregation
How it was run: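 Fresh human platelet-rich plasma, prewarmed at 37 degrees C, was preincubated one minute with aptamer (zero, 1 nM to 1000 nM) before botrocetin at a per-donor titrated aggregating concentration. Aggregation was followed as light transmittance; the value is the concentration blocking aggregation by 90% or greater after 6 minutes.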

[2] = system: full length human vWF (SEQ ID NO 7); assay: dot blot KD determination and extent of binding, full length human vWF; details: for % binding @ 100 nM vWF: extent of aptamer binding at 100 nM full length human vWF; for binding to human vWF: in words;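 on all read-outs here: dot blot binding of aptamers to full length human vWF across a protein titration, incubated 30 minutes at room temperature in 1x DPBS with BSA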
[3] = system: rabbit vWF A1 domain (SEQ ID NO 6); assay: 3-point dot blot screen, rabbit vWF A1 domain; format: binding; details: for Screen- Rabbit/No Protein: 100 nM rabbit vWF A1 domain, ratio of fraction bound with target to without; for Screen Rabbit/No Protein: 3-point dot blot screen, 20 nM rabbit vWF A1 domain, ratio of fraction of aptamer bound with target protein to fraction bound without protein
rabbit vWF A1 domain (SEQ ID NO 6), sequence (as listed by the source): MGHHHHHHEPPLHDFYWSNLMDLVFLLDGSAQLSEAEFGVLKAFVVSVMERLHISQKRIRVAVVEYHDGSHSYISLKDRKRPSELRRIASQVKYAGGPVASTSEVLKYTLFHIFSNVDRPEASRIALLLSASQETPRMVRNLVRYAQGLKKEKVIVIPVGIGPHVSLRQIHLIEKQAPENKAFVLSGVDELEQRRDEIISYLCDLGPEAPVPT
How it was run: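 Rabbit vWF A1 domain binding was screened by dot blot using three conditions: no target protein, human vWF, and rabbit vWF A1 domain at 100 nM (20 nM in the screen run twice). Radiolabeled aptamer bound to nitrocellulose was quantified, and results are expressed as the ratio of bound fraction with protein to bound fraction without protein.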

[4] = molecular target: T1, human vWF A1 domain (SEQ ID NO 5) (Homo sapiens, UniProt P04275, T1381A); assay: 3-point dot blot screen, human vWF A1 domain; format: binding; details: 100 nM human vWF A1 domain
T1 sequence (P04275 with tags, fused parts or gaps T1381A): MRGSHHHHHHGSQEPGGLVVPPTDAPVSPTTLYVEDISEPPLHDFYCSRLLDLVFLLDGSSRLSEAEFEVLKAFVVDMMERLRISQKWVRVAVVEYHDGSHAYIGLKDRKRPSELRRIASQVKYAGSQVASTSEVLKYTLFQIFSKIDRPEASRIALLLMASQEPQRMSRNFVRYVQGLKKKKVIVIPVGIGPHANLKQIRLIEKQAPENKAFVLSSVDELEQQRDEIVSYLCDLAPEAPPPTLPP
How it was run: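 Values are ratios of aptamer fraction retained on nitrocellulose with 100 nM vWF A1 domain (human or rabbit) versus a no-protein control. Unique clones from rounds 9 and 12 pools were transcribed, desalted and 5'-32P labeled before this three-point dot blot screen.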

[5] = molecular target: T1, human vWF A1 domain (SEQ ID NO 5); assay: dot blot KD determination, human vWF A1 domain
Method: For KD determination, aptamers transcripts were purified on 10% denaturing polyacrylamide gels, 5′ end labeled with γ-^32P ATP.
For KD determination, aptamers were purified on denaturing polyacrylamide gels and 5′-end labeled with γ-^32P ATP. A 6 point protein titration of human vWF A1 domain (SEQ ID NO 5) was used in the dot blot assay (333 nM, 100 nM, 33 nM, 10 nM, 3 nM, 0 nM) in 1×DPBS plus 0.1 mg/mL BSA at room temperature for 30 minutes. KD values were calculated by fitting the equation y=(max/(1+K/protein))+yint using KaleidaGraph (KaleidaGraph v. 3.51, Synergy Software).
KD values were calculated by fitting the equation y=(max/(1+K/protein))+yint using KaleidaGraph (KaleidaGraph v. 3.51, Synergy Software).
All minimer sequences were transcribed, gel-purified on 15% denaturing polyacrylamide gels, 5-^32 end-labeled with γ^32P ATP, and then desalted using two Centri-Spin 10 columns (Princeton Separations Cat. #CS-101, Adelphia, N.J.). For KD determination, minimer transcripts were tested for direct binding to full length human vWF (SEQ ID NO 7), human vWF A1 domain (SEQ ID NO 5), and rabbit vWF A1 domain (SEQ ID NO 6) using an 8 point protein titration from 0-300 nM (3 fold dilutions) in 1× Dulbecco's PBS containing 0.1 mg/mL BSA (in a final volume of 50 uL) for 30 minutes at room temperature and then applied to a nitrocellulose and nylon filter sandwich in a dot blot apparatus (Schleicher and Schuell, Keene, N.H.). KD values were calculated by fitting the equation y=(max/(1+K/protein))+yint using KaleidaGraph (KaleidaGraph v. 3.51, Synergy Software).
All minimer DNA sequences were chemically synthesized, 5-^32P end-labeled with γ-^32P ATP, and then desalted using two Centri-Spin 10 columns (Princeton Separations, Cat. #CS-101, Adelphia, N.J.). […] KD values were calculated by fitting the equation y=(max/(1+K/protein))+yint using KaleidaGraph (KaleidaGraph v. 3.51, Synergy Software).

[6] = Phase 3 modification, full length human vWF, dot blot, 8 point protein titration, read-out: KD
[7] = Phase 4 and 5 modification, full length human vWF, read-out: KD
[8] = rRdY aptamers, ratio of fraction bound with target to without
[9] = read-out: Human A1 KD, rRdY aptamers, 6 point protein titration

Molecule: PEG20K-NH2-mGmCmGmUdGdCdAmGmUmGmCmCmUmUmCmGmGmCdCmG-s-TmGdCdGdGTmGmCdCmUdCdCmGmUdCmAmCmGmC-3T [ARC1779]
- IC90 [1]: ~100 nM

Molecule: dGdGdCdGTdGdCdAdGTdGdCdCTTdCdGdGdCdCdGTdGdCdGdGTdGdCdCTdCdCdGTdCdAdCdGdCdC-3T (DNA GGCGTGCAGTGCCTTCGGCCGTGCGGTGCCTCCGTCACGCC; DNA, [invdT] at 3' end, backbone and methylation of C not given here) [ARC1172, ARC1115 with 3'-inverted dT]
- IC90 [1]: ~200 nM
- % binding @ 100 nM vWF ([2]; Phase 1 modification): 37%
- Kd ([2]; Phase 1 modification, full length human vWF, dot blot, 8 point protein titration, read-out: KD): 2 nM
- % binding @ 100 nM vWF ([2]; Phase 3 modification): 37%
- Kd [2, 6]: 2 nM
- % binding @ 100 nM vWF ([2]; Phase 4 and 5 modification): 37%
- Kd [2, 7]: 2 nM
- binding to human vWF ([2]; dot blot): shown to bind

Molecule: mGmCmGmUdGdCdAmGmUmGmCmCmUmUmCmGmGmCdCmG-s-TmGdCdGdGTmGmCdCmUdCdCmGmUdCmAmCmGmC-3T (GCGUGCAGUGCCUUCGGCCGTGCGGTGCCUCCGUCACGC; sugars from the 5' end mmmmdddmmmmmmmmmmmdmdmddddmmdmddmmdmmmm, [invdT] at 3' end, backbone not given here) [ARC1368]
- IC90 [1]: ~200 nM
- inhibition of botrocetin induced platelet aggregation ([1]; in words, human PRP): potency comparable to ReoPrO™
- % binding @ 100 nM vWF ([2]; Phase 3 modification): 38.2%
- Kd [2, 6]: 1.8 nM
- % binding @ 100 nM vWF ([2]; Phase 4 and 5 modification): 38.2%
- Kd [2, 7]: 1.8 nM
- binding to human vWF ([2]; dot blot): affinity identical (within experimental error) to that of the parent compound

B1: AMX206.D8: rRdY aptamer clone (nucleic acid)
chain: rGrGrArGdCrGdCrAdCdTdCrArGdCdCrAdCrGrAdCrGrGdTrGrAdTrGrGrAdTdTrArGdCrGdCrGrGdTrGrGrAdTdCdTdTrArAdCrGdTrGdCrGrArGdTdTdTdCrGrAdCdCdTdCdTdCdTrGdCdTrArGdC
- Screen- Rabbit/No Protein ([3]; rRdY aptamers): 3.76
- Screen- Human/No Protein [4, 8]: 2.80
- Kd [5, 9]: 370 nM

B2: AMX203.G9: rRdY aptamer clone (nucleic acid)
chain: rGrGrArGdCrGdCrAdCdTdCrArGdCdCrAdCrGrGrGrGdTrGrGrGdTrArGrAdCrGrGdCrGrGrGdTrAdTrGdTrGrGdCdTrGrGdTrGdTdCrGrArArGrGrGdTdTdTdCrGrAdCdCdTdCdTdCdTrGdCdTrArGdC
- ≦200 nM aptamer gives >90% blocking in BIPA at 6 minutes [1]: yes
- Screen- Rabbit/No Protein ([3]; rRdY aptamers): 1.35
- Screen- Human/No Protein [4, 8]: 1.65
- Kd [5, 9]: 1.3 nM

B3: AMX201.C8: rRfY aptamer clone (nucleic acid)
chain: rGrGrArGfCrGfCrAfCfUfCrArGfCfCrAfCfCfCfUfCrGfCrArArGfCrAfUfUfUfUrArArGrArAfUrGrAfCfUfUrGfUrGfCfCrGfCfUrGrGfCfUrGfUfUfUfUfCrGrAfCfCfUfCfUfCfUrGfCfUrArGfC
- ≦200 nM aptamer gives >90% blocking in BIPA at 6 minutes [1]: yes
- Screen- Rabbit/No Protein ([3]; rRfY aptamers): 1.50
- Screen- Human/No Protein ([4]; rRfY aptamers, ratio of fraction bound with target to fraction bound without target): 2.47
- Kd ([5]; read-out: human A1 KD, rRfY aptamers, 8 point titration of human vWF A1 domain): 0.2 nM

B4: AMX205.F7: rRdY aptamer clone (nucleic acid)
chain: rGrGrArGdCrGdCrAdCdTdCrArGdCdCrAdCrAdCrGrAdCrAdTdTrGrGdCrGrGrGdTdTrGdTrArAdTdTrAdCdCrAdCrGdCrAdTrGrGdCdTrGdTdTdTrGdTdTdTdCrGrAdCdCdTdCdTdCdTrGdCdTrArGdC
- ≦200 nM aptamer gives >90% blocking in BIPA at 6 minutes [1]: yes
- Screen- Rabbit/No Protein ([3]; rRdY aptamers): 2.37
- Screen- Human/No Protein [4, 8]: 3.13
- Kd [5, 9]: 1.5 nM

B5: AMX205.H10: rRdY aptamer clone (nucleic acid)
chain: rGrGrArGdCrGdCrAdCdTdCrArGdCdCrAdCdTrGdTdTrGdCdCrGrAdCrGrGdTrGrAdTrGdTrAdTdTrArAdCrGdCrGrGrGdCrArAdCrGdTdTrGrGdTrGdTdTdTdCrGrAdCdCdTdCdTdCdTrGdCdTrArGdC
- Screen- Rabbit/No Protein ([3]; rRdY aptamers): 2.47
- Screen- Human/No Protein [4, 8]: 1.88
- Kd [5, 9]: 397 nM

B6: AMX237.G6: DNA SELEX 2 aptamer clone (nucleic acid)
DNA: CTACCTACGATCTGACTAGCGTGCAGTGCCTATTCCAGGCCGTGCGGTGCCTCCGTCACGCTTACTCTCATGTAGTTCC
modifications: DNA, backbone and methylation of C not given here
notes: DNA SELEX 2 aptamer clone
- ≦200 nM aptamer gives >90% blocking in BIPA at 6 minutes [1]: yes
- Screen Rabbit/No Protein [3]: 3.63
- Kd ([2]; dot blot, 12 point protein titration, 1xDPBS plus 0.1 mg/mL BSA, room temperature, 30 minutes, read-out: full length human vWF KD): 0.2 nM

B7: AMX237.A2: DNA SELEX 2 aptamer clone (nucleic acid)
chain: CTACCTACGATCTGACTAGCTCCAGTGTTTCATCCAATAACCGTGCGGTGCCTCCGTGAGCTTACTCTCATGTAGTTCC
modifications: DNA, backbone and methylation of C not given here
notes: DNA SELEX 2 aptamer clone
- Screen Rabbit/No Protein [3]: 2.34

B8: AMX238.G5: DNA SELEX 2 aptamer clone (nucleic acid)
DNA: B7 chain with C31T, C34T
modifications: DNA, backbone and methylation of C not given here
notes: DNA SELEX 2 aptamer clone
- Screen Rabbit/No Protein [3]: 2.68

B9: AMX238.D12: DNA SELEX 2 aptamer clone (nucleic acid)
DNA: B7 chain with C34T
modifications: DNA, backbone and methylation of C not given here
notes: DNA SELEX 2 aptamer clone
- Screen Rabbit/No Protein [3]: 2.19

B10: AMX237.A11: DNA SELEX 2 aptamer clone (nucleic acid)
chain: B7 chain with C31T
modifications: DNA, backbone and methylation of C not given here
notes: DNA SELEX 2 aptamer clone
- Screen Rabbit/No Protein [3]: 2.38

B11: AMX237.B11: DNA SELEX 2 aptamer clone (nucleic acid)
DNA: B7 chain with C31T, C35T
modifications: DNA, backbone and methylation of C not given here
notes: DNA SELEX 2 aptamer clone
- Screen Rabbit/No Protein [3]: 2.57
